From patent US20240042018A1 (University of Washington, published 2024)

Columns and labels:
[1] = target: T1, I53_dn5B_2gly trimer (N-linked glycans at PNGS 32-YDNLT-36 and 89-NAT-91); test: in vitro nanoparticle assembly, SEC and SDS-PAGE
T1 chain: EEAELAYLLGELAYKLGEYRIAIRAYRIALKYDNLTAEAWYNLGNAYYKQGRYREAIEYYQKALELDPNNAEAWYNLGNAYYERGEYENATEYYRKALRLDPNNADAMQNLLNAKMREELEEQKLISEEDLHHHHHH

[2] = target: T2, I53_dn5B trimer; test: nanoparticle assembly grade, Table 3
T2 chain: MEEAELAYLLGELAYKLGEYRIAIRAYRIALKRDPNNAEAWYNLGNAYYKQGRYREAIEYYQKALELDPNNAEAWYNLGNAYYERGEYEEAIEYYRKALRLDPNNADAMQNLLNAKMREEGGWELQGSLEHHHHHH

B1: I53_dn5A_2gly pentamer (designed binder)
chain: KYDGSKLRIGILHARGNAEIILELVLGALKRLQEFGVKRENIIIETVPGSFELPYGSKLFVEKQKRLGKPLDAIIPIGVLIRGNDTHFDYIADSTTHQLMKLNFELGIPVIFGVLTTNSTEQAEERAGTKAGNHGEDWGAAAVEMATKFNLEEQKLISEEDLHHHHHH
[1]
  binding result: binds
[2]
  binding result: binds
